# Values quoted from earlier work in article PMC5120336.
# Target: IRAK-4 kinase domain (Homo sapiens) (UniProt Q9NWZ3)
# IRAK-4 kinase domain, sequence (Q9NWZ3 154-460): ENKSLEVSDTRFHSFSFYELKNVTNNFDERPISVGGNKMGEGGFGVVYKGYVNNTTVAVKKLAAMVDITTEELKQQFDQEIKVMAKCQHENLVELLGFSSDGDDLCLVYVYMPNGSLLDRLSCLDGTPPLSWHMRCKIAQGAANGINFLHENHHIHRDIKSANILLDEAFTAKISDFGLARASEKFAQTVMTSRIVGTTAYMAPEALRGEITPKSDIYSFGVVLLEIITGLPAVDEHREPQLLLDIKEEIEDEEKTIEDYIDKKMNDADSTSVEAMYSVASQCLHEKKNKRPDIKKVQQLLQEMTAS
substance,measurement,value
IRAK-4 kinase domain (from UniProt Q9NWZ3),Kd,2500 nM
